Experimental findings from publication PMC6075034 are described below.

This series deals with T1, Yra1 (Saccharomyces cerevisiae, UniProt Q12159 1-226).
T1 sequence: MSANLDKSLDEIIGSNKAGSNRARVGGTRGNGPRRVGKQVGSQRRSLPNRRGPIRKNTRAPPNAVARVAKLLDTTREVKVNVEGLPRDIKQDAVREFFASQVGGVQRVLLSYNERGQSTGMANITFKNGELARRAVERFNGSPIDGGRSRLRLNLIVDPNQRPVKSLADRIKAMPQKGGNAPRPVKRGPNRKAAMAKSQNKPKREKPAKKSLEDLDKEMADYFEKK
Kind of series: EMSA. On the technique in general: Mobility shift assays separate free from complexed probe on a gel.

On to GUGUAAUGUUGUUGCACGGCACGCU (ssRNA) [RNA-25 ssRNA], for which the binding result is listed as “binds”.

B1: 25-bp RNA-DNA hybrid (RNA-25/DNA-25C) (DNA:RNA)
RNA: GUGUAAUGUUGUUGCACGGCACGCU
DNA: AGCGTGCCGTGCAACAACATTACAC
With B1, the binding result is “binds”.

As for AGCGTGCCGTGCAACAACATTACAC (ssDNA) [DNA-25C ssDNA], the binding result is reported as “binds”.

B2: 25-bp dsRNA (RNA-25 + complementary RNA; RNA-25C is printed identical to RNA-25, apparent misprint, complement built) (dsRNA)
RNA 1: GUGUAAUGUUGUUGCACGGCACGCU
RNA 2: AGCGUGCCGUGCAACAACAUUACAC
Consider B2, for which the binding result is on record as “binds”.
